This passage reports Kd results from patent publication US20130230519A1 (published 2013).

Assay [1] deals with T1, Rat Serum Albumin (rat, UniProt P02770 25-608).
T1 construct: mature; Bought purified serum protein; also called RSA; rat SA
The experiment in a line: SPR (BIAcore), purified dAb. On the procedure: (§1) Unique dAbs were expressed as bacterial supernatants in 0.5 L shake flasks in Onex media at 30° C. for 48 hrs at 250 rpm. dAbs were purified from the culture media by absorption to protein L streamline followed by elution with 100 mM glycine pH2.0.

For another assay, the target named is T2, mouse serum albumin (mouse, UniProt P07724 25-608).
T2 construct: mature; Bought purified serum protein; also called MSA; mouse SA
The experiment in a line: SPR (BIAcore), purified dAb. On the procedure: as §1

A further assay has as its target T3, Human Serum Albumin (human, UniProt P02768 25-609).
T3 construct: mature; Bought purified serum protein; Immobilised on CM5 chips; also called HSA; human SA
The assay is described as follows: SPR (BIAcore), purified dAb. How it is done: as §1

The target of assay [2] is T4, Cynomolgus monkey Serum Albumin (Cynomolgus monkey, UniProt A2V9Z4 25-608).
T4 construct: mature; Purified in house; also called CSA; cyno serum albumin
T4 sequence (A2V9Z4 25-608): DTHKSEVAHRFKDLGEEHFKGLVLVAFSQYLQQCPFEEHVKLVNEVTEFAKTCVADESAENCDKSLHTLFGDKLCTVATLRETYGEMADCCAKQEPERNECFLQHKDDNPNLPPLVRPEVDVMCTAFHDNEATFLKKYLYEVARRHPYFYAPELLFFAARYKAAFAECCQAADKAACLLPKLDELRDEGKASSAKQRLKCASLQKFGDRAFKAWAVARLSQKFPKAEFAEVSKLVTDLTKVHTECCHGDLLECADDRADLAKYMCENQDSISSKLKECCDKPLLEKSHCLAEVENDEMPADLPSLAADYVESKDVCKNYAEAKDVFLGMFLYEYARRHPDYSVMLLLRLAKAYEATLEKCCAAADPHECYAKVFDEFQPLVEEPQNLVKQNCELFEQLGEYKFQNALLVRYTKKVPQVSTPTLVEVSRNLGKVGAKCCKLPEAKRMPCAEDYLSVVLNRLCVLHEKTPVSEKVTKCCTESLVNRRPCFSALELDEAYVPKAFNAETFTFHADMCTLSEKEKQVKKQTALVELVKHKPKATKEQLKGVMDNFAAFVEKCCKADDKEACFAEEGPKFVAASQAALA
The experiment in a line: SPR (BIAcore), purified dAb. How it is done:
as §1

The target in assay [3] is T1, Rat Serum Albumin. The assay is described as follows: SPR (BIAcore), purified dAb; second protein batch, second analyst. On the procedure: as §1
Assay [4] concerns the target T4, Cynomolgus monkey Serum Albumin. The assay is described as above. On the procedure:
as §1

T3 sequence (P02768 25-609): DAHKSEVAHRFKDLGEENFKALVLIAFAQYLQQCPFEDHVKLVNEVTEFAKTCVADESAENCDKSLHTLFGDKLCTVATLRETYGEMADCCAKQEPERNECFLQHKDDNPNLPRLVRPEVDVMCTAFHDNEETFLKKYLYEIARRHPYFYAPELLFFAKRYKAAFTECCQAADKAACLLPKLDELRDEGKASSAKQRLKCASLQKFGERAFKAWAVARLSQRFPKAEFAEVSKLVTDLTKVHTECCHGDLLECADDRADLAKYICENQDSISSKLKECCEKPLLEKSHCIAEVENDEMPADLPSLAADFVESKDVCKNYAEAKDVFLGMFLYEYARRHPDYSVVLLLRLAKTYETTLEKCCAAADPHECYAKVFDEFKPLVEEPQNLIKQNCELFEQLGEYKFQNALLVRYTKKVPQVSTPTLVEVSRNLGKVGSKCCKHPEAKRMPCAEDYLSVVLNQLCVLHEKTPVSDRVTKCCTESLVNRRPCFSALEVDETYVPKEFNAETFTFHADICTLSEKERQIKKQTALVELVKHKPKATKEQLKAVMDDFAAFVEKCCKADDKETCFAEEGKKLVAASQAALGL
T1 sequence (P02770 25-608): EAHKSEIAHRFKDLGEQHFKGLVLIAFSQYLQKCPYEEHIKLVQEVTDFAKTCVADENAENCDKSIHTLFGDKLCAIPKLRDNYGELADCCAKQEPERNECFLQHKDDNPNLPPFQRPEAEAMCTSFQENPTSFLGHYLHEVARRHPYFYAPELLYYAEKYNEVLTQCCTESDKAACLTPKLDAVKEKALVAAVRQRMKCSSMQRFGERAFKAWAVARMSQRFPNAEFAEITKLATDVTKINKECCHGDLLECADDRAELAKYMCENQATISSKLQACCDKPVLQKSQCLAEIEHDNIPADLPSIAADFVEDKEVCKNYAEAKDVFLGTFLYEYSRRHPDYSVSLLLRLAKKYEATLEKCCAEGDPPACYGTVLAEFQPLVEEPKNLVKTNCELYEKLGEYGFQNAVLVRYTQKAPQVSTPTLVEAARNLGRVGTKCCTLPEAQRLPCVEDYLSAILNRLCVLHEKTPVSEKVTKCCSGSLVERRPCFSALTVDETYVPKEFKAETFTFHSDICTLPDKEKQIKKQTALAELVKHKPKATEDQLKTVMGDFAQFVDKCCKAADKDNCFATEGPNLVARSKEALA

B1: DOM7h-14-10 (other)
VL: DIQMTQSPSSLSASVGDRVTITCRASQWIGSQLSWYQQKPGKAPKLLIMWRSSLQSGVPSRFSGSGSGTDFTLTISSLQPEDFATYYCAQGLRHPKTFGQGTKVEIKR
notes: Vk dAb (AlbudAb); tag not included here
Turning to B1, the Kd with Rat Serum Albumin [1] was determined as 9.4 nM; in the assay with mouse serum albumin, 30.1 nM.

B2: DOM7h-14-74 (other)
VL: DIQMTQSPSSLSASVGDRVTITCRASQWIGSQLSWYQQKPGKAPKLLIMWRSSLQSGVPSRFSGSGSGTDFTLTISSLQPEDFATYYCAQGLRHPKTYGKGTKVENKW
notes: pDOM5 myc tag not included
Turning to B2, the Kd was 4.8 nM with Human Serum Albumin; 4.3 nM with Rat Serum Albumin [1]; 6.3 nM in assay [2]; 23.5 nM with mouse serum albumin; 11.6 nM in the assay with Rat Serum Albumin [3]; 2.7 nM in assay [4].

B3: DOM7h-14-100 (other)
VL: DIQMTQSPSSLSASVGDRVTITCRASQWIGSQLSWYQQKPGKAPKLLIMWRSSLQSGVPSRFSGSGSGTDFTLTISSLQPEDFATYYCAQGLRHPKTYGQGTKVENKW
notes: pDOM5 myc tag not included
Consider B3, for which the Kd with Human Serum Albumin turned out to be 4.5 nM; with Rat Serum Albumin [1] it was 3.7 nM; in assay [2], 6.4 nM; in the assay with mouse serum albumin, 8 nM; with Rat Serum Albumin [3], 29 nM; in assay [4], 6.1 nM.

B4: DOM7h-14-82 (other)
VL: DIQMTQSPSSLSASVGDRVTITCRASQWIGSQLSWYQQKPGKAPKLLIMWRSSLQSGVPSRFSGSGSGTDFTLTISSLQPEDFATYYCAQGMRHPKTFGQGTKVEIKW
notes: pDOM5 myc tag not included
For the molecule B4, the Kd was 15.4 nM in the assay with Human Serum Albumin, 11.8 nM with Rat Serum Albumin [1], 170 nM in assay [2] and 32.3 nM in the assay with mouse serum albumin.

B5: DOM7h-14-116 (other)
VL: DIQMTQSPSSLSASVGDRVTITCRASQWIGSQLSWYQQKPGKAPKLLIMWRSALQSGVPSRFSGSGSGTDFTLTISSLQPEDFATYYCAQGLRYPKTFGQGTKVEIKW
notes: pDOM5 myc tag not included
For B5, the Kd with Human Serum Albumin was found to be 7 nM; in the assay with Rat Serum Albumin [1] it was 8.5 nM; in assay [2], 22.8 nM; in the assay with mouse serum albumin, 19.1 nM.

B6: DOM7h-14-120 (other)
VL: DIQMTQSPSSLSASVGDRVTITCRASQWIGSQLSWYQQKPGKAPKLLIMWRSSLQSGVPSRFSGSGSGTDFTLTISSLQPEDFATYYCAQGLRHPKTYGQGTKVENKR
With B6, the Kd with Human Serum Albumin was determined as 14 nM; with Rat Serum Albumin [1] it was 2.7 nM; in assay [2], 3.7 nM.

B7: DOM7h-14-76 (other)
VL: DIQMTQSPSSLSASVGDRVTITCRASQWIGSQLSWYQQKPGKAPKLLIMWRSSLQSGVPSRFSGSGSGTDFTLTISSLQPEDFATYYCAQGLKHPKTYGQGTKVEIKW
notes: pDOM5 myc tag not included
B7: the Kd was 6.3 nM with Human Serum Albumin, 4.7 nM with Rat Serum Albumin [1], 19.9 nM in assay [2] and 11.5 nM in the assay with mouse serum albumin.

B8: DOM7h-14-56 (other)
VL: DIQMTQSPSSLSASVGDRVTITCRASQWIGSQLSWYQQKPGKAPMLLIMWSSSLQSGVPSRFSGSGSGTDFTLTISSLQPEDFATYYCAQGLRHPKTFGQGTKVEIKW
notes: pDOM5 myc tag not included
Take B8: the Kd with Human Serum Albumin is 11.1 nM; with Rat Serum Albumin [1], 3.4 nM; in assay [2], 18.7 nM; with mouse serum albumin, 6.3 nM.

B9: DOM7h-14-115 (other)
VL: DIQMTQSPSSLSASVGDRVTITCRASQWIGSQLSWYQQKPGKAPKLLIMWRSALQSGVPSRFSGSGSGTDFTLTISSLQPEDFATYYCAQGLRHPKTYGQGTKVEIKW
notes: pDOM5 myc tag not included
The molecule B9 returned a Kd with mouse serum albumin of 9.8 nM.

B10: DOM7h-14-119 (other)
VL: DIQMTQSPSSLSASVGDRVTITCRASQWIGSQLSWYQQKPGKAPKLLIMWRSSLQSGVPSRFSGSGSGTDFTLTISSLQPEDFATYYCAQGLRHPKTYGQGTKVEIKR
B10 gave a Kd with Rat Serum Albumin [1] of 6.2 nM.

B11: DOM7h-14-123 (other)
VL: DIQMTQSPSSLSASVGDRVTITCRASQWIGSQLSWYQQKPGKAPKLLIMWRSSLQSGVPSRFSGSGSGTDFTLTISSLQPEDFATYYCAQGLRHPKTYGKGTKVENKR
As to B11, the Kd with Human Serum Albumin was found to be 12 nM; with Rat Serum Albumin [1], 5.1 nM; in assay [2] it was 8 nM.

B12: DOM7h-14-101 (other)
VL: DIQMTQSPSSLSASVGDRVTITCRASQWIGSQLSWYQQKPGKAPKLLIMWRSALQNGVPSRFSGSGSGTDFTLTISSLQPEDFATYYCAQGLRHPKTFGQGTKVEIKW
notes: pDOM5 myc tag not included
For B12, the Kd was determined as 8.4 nM with Human Serum Albumin, 5.8 nM with Rat Serum Albumin [1], 11.6 nM in assay [2] and 16.8 nM with mouse serum albumin.

B13: DOM7h-14-65 (other)
VL: DIQMTQSPSSLSASVGDRVTITCRASQWIGSQLSWYQQKPGKAPKLLIMWRSALQSGVPSRFSGSGSGTDFTLTISSLQPEDFATYYCAQGLRHPKTFGQGTKVEIKW
notes: pDOM5 myc tag not included
For the molecule B13, the values for the Kd (in the assay with mouse serum albumin; with Rat Serum Albumin [3]; in assay [4]) were 15.3 nM, 25 nM and 16 nM, respectively.

B14: DOM7h-14-109 (other)
VL: DIQMTQSPSSLFASVGDRVTITCRASQWIGSQLSWYQQKPGKAPKLLIMWRSSLQSGVPSRFSGSGSGTDFTLTISSLQPEDFATYYCAQGLRKPKTFGQGTKVKIKW
notes: pDOM5 myc tag not included
B14: the Kd stood at 108 nM in the assay with Human Serum Albumin, 15.4 nM with Rat Serum Albumin [1], 17.6 nM in assay [2] and 58.1 nM in the assay with mouse serum albumin.

B15: DOM7h-14-122 (other)
VL: DIQMTQSPSSLSASVGDRVTITCRASQWIGSQLSWYQQKPGKAPKLLIMWRSSLQSGVPSRFSGSGSGTDFTLTISSLQPEDFATYYCAQGLRHPKTYGKGTKVEIKR
Take B15: binding in the assay with Rat Serum Albumin [1] was put at a Kd of 7.8 nM.
